# Assays:
# [1] = biological target: recombinant UBE3A protein (Homo sapiens (Human)) (UniProt Q05086); assay: 3-step Simoa; capture MS 3E5; UBE3A 0.1 ng/ml
# [2] = biological target: recombinant UBE3A protein (Homo sapiens (Human)) (UniProt Q05086); assay: 3-step Simoa; capture MS 3E5; UBE3A 1 ng/ml
# [3] = biological target: recombinant UBE3A protein (Homo sapiens (Human)) (UniProt Q05086); assay: 2-step Simoa; capture MS 3E5; UBE3A 1 ng/ml
# [4] = biological target: recombinant UBE3A protein (Homo sapiens (Human)) (UniProt Q05086); assay: 3-step Simoa; capture MS 3E5; UBE3A 10 ng/ml
# [5] = biological target: recombinant UBE3A protein (Homo sapiens (Human)) (UniProt Q05086); assay: 2-step Simoa; capture GTX; UBE3A 0.1 ng/ml
# [6] = biological target: recombinant UBE3A protein (Homo sapiens (Human)) (UniProt Q05086); assay: 3-step Simoa; capture MS 2F6; UBE3A 0.01 ng/ml
# [7] = biological target: recombinant UBE3A protein (Homo sapiens (Human)) (UniProt Q05086); assay: 2-step Simoa; capture MS 3E5; UBE3A 0.01 ng/ml
# [8] = biological target: recombinant UBE3A protein (Homo sapiens (Human)) (UniProt Q05086); assay: 2-step Simoa; capture MS 3E5; UBE3A 10 ng/ml
# [9] = biological target: recombinant UBE3A protein (Homo sapiens (Human)) (UniProt Q05086); assay: 2-step Simoa; capture MS 3E5; UBE3A 0.1 ng/ml
# [10] = biological target: recombinant UBE3A protein (Homo sapiens (Human)) (UniProt Q05086); assay: 3-step Simoa; capture MS 3E5; UBE3A 0.01 ng/ml
# [11] = biological target: recombinant UBE3A protein (Homo sapiens (Human)) (UniProt Q05086); assay: Simoa head-to-head, Table 10; capture GTX; UBE3A 500 ng/ml
# [12] = biological target: recombinant UBE3A protein (Homo sapiens (Human)) (UniProt Q05086); assay: Simoa head-to-head, Table 10; capture GTX; UBE3A 20.0 ng/ml
# [13] = biological target: recombinant UBE3A protein (Homo sapiens (Human)) (UniProt Q05086); assay: Simoa head-to-head, Table 10; capture GTX; UBE3A 0.032 ng/ml
# [14] = biological target: recombinant UBE3A protein (Homo sapiens (Human)) (UniProt Q05086); assay: 3-step Simoa; capture GTX; UBE3A 500 ng/ml
# [15] = biological target: recombinant UBE3A protein (Homo sapiens (Human)) (UniProt Q05086); assay: Simoa head-to-head, Table 10; capture GTX; UBE3A 4.00 ng/ml
# [16] = biological target: recombinant UBE3A protein (Homo sapiens (Human)) (UniProt Q05086); assay: Simoa head-to-head, Table 10; capture GTX; UBE3A 0.80 ng/ml
# [17] = biological target: recombinant UBE3A protein (Homo sapiens (Human)) (UniProt Q05086); assay: Simoa head-to-head, Table 10; capture GTX; UBE3A 100 ng/ml
# [18] = biological target: recombinant UBE3A protein (Homo sapiens (Human)) (UniProt Q05086); assay: Simoa; capture GTX, no helper beads; 3E5 0.4 ug/ml; UBE3A 4.00 ng/ml
# [19] = biological target: recombinant UBE3A protein (Homo sapiens (Human)) (UniProt Q05086); assay: Simoa; capture GTX; 3E5 0.4 ug/ml; UBE3A 4.00 ng/ml
# [20] = biological target: recombinant UBE3A protein (Homo sapiens (Human)) (UniProt Q05086); assay: Simoa; capture GTX, no helper beads; 3E5 0.2 ug/ml; UBE3A 0.160 ng/ml
# [21] = biological target: recombinant UBE3A protein (Homo sapiens (Human)) (UniProt Q05086); assay: Simoa; capture GTX + helper beads; 3E5 0.1 ug/ml; UBE3A 0.0320 ng/ml
# [22] = biological target: recombinant UBE3A protein (Homo sapiens (Human)) (UniProt Q05086); assay: Simoa; capture GTX; SBG 150 pm; UBE3A 0.0320 ng/ml
# UniProt Q05086, sequence (Q05086 whole entry): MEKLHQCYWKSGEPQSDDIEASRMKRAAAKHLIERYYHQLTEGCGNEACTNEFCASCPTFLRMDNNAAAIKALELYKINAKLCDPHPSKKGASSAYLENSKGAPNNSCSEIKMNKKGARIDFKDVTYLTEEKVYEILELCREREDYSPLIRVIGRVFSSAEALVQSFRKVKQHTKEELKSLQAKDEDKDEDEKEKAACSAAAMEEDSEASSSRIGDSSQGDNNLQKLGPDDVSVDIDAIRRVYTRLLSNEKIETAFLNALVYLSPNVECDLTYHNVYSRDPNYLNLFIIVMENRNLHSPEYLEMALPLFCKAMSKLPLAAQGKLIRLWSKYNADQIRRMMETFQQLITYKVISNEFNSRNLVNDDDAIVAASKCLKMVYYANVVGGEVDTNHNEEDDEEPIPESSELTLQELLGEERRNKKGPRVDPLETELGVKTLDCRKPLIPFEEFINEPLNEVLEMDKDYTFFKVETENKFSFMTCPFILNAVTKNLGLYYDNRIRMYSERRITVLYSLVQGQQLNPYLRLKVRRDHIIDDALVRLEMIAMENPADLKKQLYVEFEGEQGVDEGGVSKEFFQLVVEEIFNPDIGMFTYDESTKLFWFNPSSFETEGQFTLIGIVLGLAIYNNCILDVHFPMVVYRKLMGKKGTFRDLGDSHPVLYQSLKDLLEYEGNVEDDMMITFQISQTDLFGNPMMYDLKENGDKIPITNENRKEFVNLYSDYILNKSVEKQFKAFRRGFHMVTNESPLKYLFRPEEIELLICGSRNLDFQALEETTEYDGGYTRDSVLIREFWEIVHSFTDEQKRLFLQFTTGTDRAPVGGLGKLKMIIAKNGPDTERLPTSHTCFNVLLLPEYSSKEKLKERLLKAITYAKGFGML
substance,measurement,setting,value
GTX101092 (GeneTex) (antibody),AEB1,[1],0.0546
same,AEB2,[1],0.06
same,Ave AEB,[1],0.0573
same,Signal to Background,[1],1.07
same,AEB1,[2],0.0655
same,AEB2,[2],0.0625
same,Ave AEB,[2],0.064
same,Signal to Background,[2],1.19
same,AEB1,[3],0.159
same,AEB2,[3],0.165
same,Ave AEB,[3],0.162
same,Signal to Background,[3],1.15
same,AEB1,[4],0.151
same,AEB2,[4],0.145
same,Ave AEB,[4],0.148
same,Signal to Background,[4],2.77
same,AEB1,[5],0.0525
same,AEB2,[5],0.0487
same,Ave AEB,[5],0.0506
same,Signal to Background,[5],1
same,AEB1,[6],0.0162
same,AEB2,[6],0.0191
same,Ave AEB,[6],0.0176
same,Signal to Background,[6],0.94
same,AEB1,[7],0.129
same,AEB2,[7],0.134
same,Ave AEB,[7],0.132
same,Signal to Background,[7],0.931
same,AEB1,[8],0.407
same,AEB2,[8],0.385
same,Ave AEB,[8],0.396
same,Signal to Background,[8],2.8
same,AEB1,[9],0.161
same,AEB2,[9],0.149
same,Ave AEB,[9],0.155
same,Signal to Background,[9],1.1
same,AEB1,[10],0.0515
same,AEB2,[10],0.05
same,Ave AEB,[10],0.0508
same,Signal to Background,[10],0.946
NB500-240 (Novus) (antibody),AEB1,[11],0.282
same,AEB2,[11],0.309
same,Ave AEB,[11],0.296
same,Signal to Background,[11],142
same,AEB1,[1],0.0026
same,AEB2,[1],0.0025
same,Ave AEB,[1],0.0025
same,Signal to Background,[1],0.765
same,AEB1,[2],0.004
same,AEB2,[2],0.0047
same,Ave AEB,[2],0.0044
same,Signal to Background,[2],1.31
same,AEB1,[12],0.132
same,AEB2,[12],0.131
same,Ave AEB,[12],0.132
same,Signal to Background,[12],63.2
same,AEB1,[3],0.0227
same,AEB2,[3],0.0226
same,Ave AEB,[3],0.0226
same,Signal to Background,[3],3.04
same,AEB1,[13],0.0035
same,AEB2,[13],0.0027
same,Ave AEB,[13],0.0031
same,Signal to Background,[13],1.49
same,AEB1,[4],0.0157
same,AEB2,[4],0.0129
same,Ave AEB,[4],0.0143
same,Signal to Background,[4],4.29
same,AEB1,[5],0.0089
same,AEB2,[5],0.0108
same,Ave AEB,[5],0.0098
same,Signal to Background,[5],1.33
same,AEB1,[6],0.0086
same,AEB2,[6],0.0101
same,Ave AEB,[6],0.0093
same,Signal to Background,[6],1.07
same,AEB1,[14],0.229
same,AEB2,[14],0.218
same,Ave AEB,[14],0.224
same,Signal to Background,[14],102
same,AEB1,[7],0.0065
same,AEB2,[7],0.007
same,Ave AEB,[7],0.0068
same,Signal to Background,[7],0.908
same,AEB1,[15],0.0402
same,AEB2,[15],0.0398
same,Ave AEB,[15],0.04
same,Signal to Background,[15],19.2
same,AEB1,[16],0.0085
same,AEB2,[16],0.0124
same,Ave AEB,[16],0.0105
same,Signal to Background,[16],5.03
same,AEB1,[8],0.15
same,AEB2,[8],0.14
same,Ave AEB,[8],0.145
same,Signal to Background,[8],19.5
same,AEB1,[17],0.293
same,AEB2,[17],0.288
same,Ave AEB,[17],0.291
same,Signal to Background,[17],140
same,AEB1,[9],0.009
same,AEB2,[9],0.0091
same,Ave AEB,[9],0.009
same,Signal to Background,[9],1.21
same,AEB1,[10],0.0038
same,AEB2,[10],0.0032
same,Ave AEB,[10],0.0035
same,Signal to Background,[10],1.05
"anti-UBE3A antibody 3E5 (SAB1404508-100 ug, Millipore-Sigma)",AEB1,[18],1.1
same,AEB2,[18],1.11
same,Average AEB,[18],1.11
same,Signal to Background,[18],56.7
same,AEB1,[11],12.3
same,AEB2,[11],11.6
same,Ave AEB,[11],11.9
same,Signal to Background,[11],526
same,AEB1,[19],2.3
same,AEB2,[19],2.58
same,AEB3,[19],2.4
same,Average AEB,[19],2.43
same,Signal to Background,[19],38.8
same,AEB1,[12],2.26
same,AEB2,[12],2.45
same,Ave AEB,[12],2.35
same,Signal to Background,[12],104
same,AEB1,[13],0.031
same,AEB2,[13],0.0329
same,Ave AEB,[13],0.0319
same,Signal to Background,[13],1.41
same,AEB1,[20],0.0675
same,AEB2,[20],0.0686
same,Average AEB,[20],0.068
same,Signal to Background,[20],7.03
same,AEB1,[21],0.0159
same,AEB2,[21],0.0108
same,Average AEB,[21],0.0134
same,Signal to Background,[21],2.33
same,AEB1,[15],0.361
same,AEB2,[15],0.362
same,Ave AEB,[15],0.361
same,Signal to Background,[15],15.9
same,AEB1,[16],0.144
same,AEB2,[16],0.14
same,Ave AEB,[16],0.142
same,Signal to Background,[16],6.24
same,AEB1,[22],0.0262
same,AEB2,[22],0.0285
same,AEB3,[22],0.0282
same,Average AEB,[22],0.0276
same,Signal to Background,[22],2.08
same,AEB1,[17],4.3
same,AEB2,[17],4.08
same,Ave AEB,[17],4.19
same,Signal to Background,[17],184
